system: K562 CRISPRi cells; experiment: Constant region variant library pooled growth screen, K562; type: cell-based, human; details: sgRNA constant region variants; activity relative to the original, un-modified constant region cr995
Summary of the method: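 Growth screens in K562 CRISPRi cells were harvested 4-8 days post-selection at >2000× library coverage. Each variant's phenotype was referenced to the unmodified constant region with the same targeting sequence.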

Row | Molecule | Mean relative activity
1 | cr234 (nucleic acid, listed as DNA, chemistry not fully specified) guide: GTTTAAGAGCTAAGCTGGAAACAGCATAGCAAGTTTAAATAAGGCTAGTCCGTTATCAACTCGAAAAAGTGGCACCGAGTCGGTGCT | 1.075
2 | cr820 (nucleic acid, listed as DNA, chemistry not fully specified) guide: GTTTAAGAGCTAAGCTGGAAACAGCATAGCAAGTTTAAATAAGGCTAGTCCGTTATCAACTGGAGACAGTGGCACCGAGTCGGTGCT | 1.072
3 | cr936 (nucleic acid, listed as DNA, chemistry not fully specified) guide: GTTTAAGAGCTAAGCTGGAAACAGCATAGCAAGTTTAAATAAGGCTAGTCCGTTATCAACTTGAAAAAGTGTCACCGAGTCGGTGAT | 1.072

same assay, conditions: sgRNA constant region variants; relative to the original, un-modified constant region cr995 (= 1)

Row | Molecule | Mean relative activity
4 | cr606 (nucleic acid, listed as DNA, chemistry not fully specified) guide: GTTTAAGAGCTAAGCTGGAAACAGCATAGCAAGTTTAAATAAGGCTAGTCCGTTATCAAGTTGAAAAACTGGCCTCGAGTCGAGGCT | 1.007
5 | cr354 (nucleic acid, listed as DNA, chemistry not fully specified) guide: GTTTAAGAGCTAAGCTGGAAACAGCATAGCAAGTTTAAATAAGGCTAGTCCGTTATCAGCTTGAAAAAGCGATACCGAGTCGGTATT | 1.016
6 | cr113 (nucleic acid, listed as DNA, chemistry not fully specified) guide: GTTTAAGAGCTAAGCTGGAAACAGCATAGCAAGTTTAAATAAGGCTAGTCCGTTTTCAACTTGAAAAAGTGGCACCGAGTCGGTGCT | 1.016
7 | cr494 (nucleic acid, listed as DNA, chemistry not fully specified) guide: GTTTAAGAGCTAAGCTGGAAACAGCATAGCAAGTTTAAATAAGGCTAGTCCGTTATCAACTTGAAATAGTGGCACCGAGTCGGTGCT | 1.016
8 | cr510 (nucleic acid, listed as DNA, chemistry not fully specified) guide: GTTTAAGAGCTAAGCTGGAAACAGCATAGCAAGTTTAAATAAGGCTAGTCCGTTATCATGTTGAAAAACAGGCACCGAGTCGGTGCT | 1.007
9 | cr428 (nucleic acid, listed as DNA, chemistry not fully specified) guide: GTTTAAGAGCTAAGCTGGAAACAGCATAGCAAGTTTAAATAAGGCTAGTCCGTTATCAACTTGCATAAGTGGCACCGAGTCGGTGCT | 1.013
10 | cr423 (nucleic acid, listed as DNA, chemistry not fully specified) guide: GTTTAAGAGCTAAGCTGGAAACAGCATAGCAAGTTTAAATAAGGCTAGTCCGTTATCAGCTTGAAAAAGCGGTACCGAGTCGGTACT | 1.012
11 | cr365 (nucleic acid, listed as DNA, chemistry not fully specified) guide: GTTTAAGAGCTAAGCTGGAAACAGCATAGCAAGTTTAAATAAGGCTAGTCCGTAATCAACTTGAAAAAGTGGCACCGAGTCGGTGCT | 1.007
12 | cr715 (nucleic acid, listed as DNA, chemistry not fully specified) guide: GTTTAAGAGCTAAGCTGGAAACAGCATAGCGAGTTTAAATAAGGCTAGTCCGTTATCAACTTGAAAAAGTGGCACCGAGTCGGTGCT | 1.008
13 | cr690 (nucleic acid, listed as DNA, chemistry not fully specified) guide: GTTTAAGAGCTAAGCTGGAAACAGCAGAGCAAGTTTAAATAAGGCTAGTCCGTTATCAACTTGAAAAAGTGGCACCGAGTCGGTGCT | 1.011
14 | cr619 (nucleic acid, listed as DNA, chemistry not fully specified) guide: GTTTAAGAGCTAAGCTGGAAACAGCATAGCAAGTTTAAATAAGGCTAGTCCGTTATCAACTTGGAAAAGTGGCACCGAGTCGGTGCT | 1.015
15 | cr559 (nucleic acid, listed as DNA, chemistry not fully specified) guide: GTTTAAGAGCTAAGCTGGAAACAGCATAGCAAGTTTAAATAAGGCTAGTCCGTTATCAACTTGAAAAAGTGGTACCGAGTCGGTACT | 1.007
16 | cr377 (nucleic acid, listed as DNA, chemistry not fully specified) guide: GTTTAAGAGCTAAGCTGGAAACAGCATAGCAAGTTTAAATAAGGCTAGTCCGTTAGCAACTTGAAAAAGTGGCACCGAGTCGGTGCT | 1.012
17 | cr980 (nucleic acid, listed as DNA, chemistry not fully specified) guide: GTTTAAGAGCTAAGCTGGAAACAGCATAGCAAGTTTAAATAAGGCTAGTCCGCTATCAACTTGAAAAAGTGGCACCGAGTCGGTGCT | 1.014
18 | cr144 (nucleic acid, listed as DNA, chemistry not fully specified) guide: GTTTAAGAGCTAAGCTGGAAACAGCATAGCAAGTTTAAATAAGGCTAGTCCGTTATCATGTAGAAATACAGGCACCGAGTCGGTGCT | 1.007
19 | cr655 (nucleic acid, listed as DNA, chemistry not fully specified) guide: GTTTAAGAGCTAAGCTGGAAACAGCATAGCAAGTTTAAATAAGGCTAGTCCGTCATCAACTTGAAAAAGTGGCACCGAGTCGGTGCT | 1.016
20 | cr121 (nucleic acid, listed as DNA, chemistry not fully specified) guide: GTTTAAGAGCTAAGCTGGAAACAGCATAGCAAGTTTAAATAAGGCTAGTCCGTTATCATCATGAAAATGAGGCACCGAGTCGGTGCT | 1.014
21 | cr302 (nucleic acid, listed as DNA, chemistry not fully specified) guide: GTTTAAGAGCTAAGCTGGAAACAGCATAGCAAGTTTAAATAAGGCTAGTCCGTTATCAACGTGAAAACGTGGTCCCGAGTCGGGACT | 1.016
22 | cr632 (nucleic acid, listed as DNA, chemistry not fully specified) guide: GTTTAAGAGCTAAGCTGGAAACAGCATAGCAAGTTTAAATAAGGCTAGTCCGTTATCAACTTGCAGAAGTGGCACCGAGTCGGTGCT | 1.008
23 | cr771 (nucleic acid, listed as DNA, chemistry not fully specified) guide: GTTTAAGAGCTAAGCTGGAAACAGCATAGCAAGTTTAAATAAGGCTAGTCCGTTATCAACTTGAGAAAGTGCCACCGAGTCGGTGGT | 1.007
24 | cr941 (nucleic acid, listed as DNA, chemistry not fully specified) guide: GTTTAAGAGCTAAGCTGGAAACAGCATAGCAAGTTTAAATAAGGCTAGTCCGTTATCAAATGGAAACATTGACACCGAGTCGGTGTT | 1.016
25 | cr348 (nucleic acid, listed as DNA, chemistry not fully specified) guide: GTTTAAGAGCTAAGCTGGAAGCAGCATAGCAAGTTTAAATAAGGCTAGTCCGTTATCAACTTGAAAAAGTGGCACCGAGTCGGTGCT | 1.008
26 | cr239 (nucleic acid, listed as DNA, chemistry not fully specified) guide: GTTTAAGAGCTAAGCTGGAAACAGCATAGCAAGTTTAAATAAGGCTAGTCCGCTATCAACTTGTAAAAGTGGCACCGAGTCGGTGCT | 1.014
27 | cr642 (nucleic acid, listed as DNA, chemistry not fully specified) guide: GTTTAAGAGCTAAGCTGGAAACAGCATAGCATGTTTAAATAAGGCTAGTCCGTTATCAACTTGAAAAAGTGGCACCGAGTCGGTGCT | 1.008
28 | cr433 (nucleic acid, listed as DNA, chemistry not fully specified) guide: GTTTAAGAGCTAAGCTGGAAACAGCATAGCAAGTTTAAATAAGGCTAGTCCGTTATCAACTTGAATAAGTGGCACCGAGTCGGTGCT | 1.012
29 | cr037 (nucleic acid, listed as DNA, chemistry not fully specified) guide: GTTTAATCGCTAAGCTGGAAACAGCATAGCAAGTTTAAATAAGGCTAGTCCGTTATCAACTTGAAAAAGTGGCACCGAGTCGGTGCT | 1.01
30 | cr898 (nucleic acid, listed as DNA, chemistry not fully specified) guide: GTTTAAGAGCTAAGCTGGAAACAGCATAGCACGTTTAAATAAGGCTAGTCCGTTATCAACTTGAGAAAGTGGCACCGAGTCGGTGCT | 1.014
